According to patent publication US20160051694A1 (AGENSYS, published 2016):

Assays:
[1] = target: T1, CD37 (Leukocyte Antigen CD37, Tetraspanin-26) on cells (human, UniProt P11049 1-281); test: FACS, Ramos cells (Burkitt's); ratio to isotype control
T1 construct: In the assays it is the endogenous CD37 of human cancer cell lines, of AML patient PBMC and of patient tumor sections, or CD37 on recombinant 293T cells; also called CD37 antigen; CD37 expressing cells
T1 sequence: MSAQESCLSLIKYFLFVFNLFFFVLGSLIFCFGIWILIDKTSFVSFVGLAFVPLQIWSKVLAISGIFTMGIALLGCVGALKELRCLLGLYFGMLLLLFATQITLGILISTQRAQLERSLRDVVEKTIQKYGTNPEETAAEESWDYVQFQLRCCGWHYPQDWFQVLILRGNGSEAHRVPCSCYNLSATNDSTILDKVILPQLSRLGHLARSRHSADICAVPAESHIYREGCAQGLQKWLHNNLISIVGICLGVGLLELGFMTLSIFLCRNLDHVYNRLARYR
From the text: (§1) To express HvCD37-6b15.1.1 MAb recombinantly in transfected cells, HvCD37-6b15.1.1 MAb variable heavy and light chain sequences were cloned upstream of the human heavy chain IgG2 and human light chain Igκ constant regions respectively. The complete HvCD37-6b15.1.1 MAb human heavy chain and light chain cassettes were cloned downstream of the CMV promoter/enhancer in a cloning vector. A polyadenylation site was included downstream of the MAb coding sequence. The recombinant HvCD37-6b15.1.1 MAb expressing construct was transfected into CHO cells. The HvCD37-6b15.1.1 MAb secreted from recombinant cells was evaluated for binding to human cancer cell lines expressing CD37 by FACS (See, Table VI). Binding was detected by flow cytometry.
(§2) HvCD37-6b15.1.1 was tested for binding to different NHL, CLL and AML cell lines (See, Table VI) grown in-vitro. HvCD37-6b15.1.1 and an Isotype matched control antibody were biotinylated using NHS LC biotin. In vitro cancer lines growing exponentially were used for all experiments. […] After washing un-bound secondary antibody, cells were analyzed by FACS, a total of 10,000 events were collected per sample. Data files were analyzed using FlowJo and Geometric Mean Fluorescence was determined and reported. Fluorescense ratio was calculated as follows: Geo mean AGS67C/Geo Mean Isotype control=MFR, a measure of fold expression above Isotype control.

[2] = target: T1, CD37 (Leukocyte Antigen CD37, …); test: FACS, Mino XCL cells (MCL, in-vivo xenograft); ratio to isotype control
[3] = target: T1, CD37 (Leukocyte Antigen CD37, …); test: FACS, KG-1 cells (AML); ratio to secondary detection (high isotype background)
From the text: as §1
as §2, with “experiments. Briefly, cells were harvested by and washed by centrifugation. Antibodies were diluted to 5 μg/mL final concentration and co-incubated with cells at 4° C. for 1 hour.” for “experiments.”, “Fluorescense ratio was calculated as follows: Geo mean AGS67C/Geo Mean Isotype control=MFR, a measure of fold expression above Isotype control.” left out

[4] = target: T1, CD37 (Leukocyte Antigen CD37, …); test: FACS, Daudi cells (Burkitt's); ratio to isotype control
From the text: as §1, §2

[5] = target: T1, CD37 (Leukocyte Antigen CD37, …); test: FACS, EoL-1 cells (AML); ratio to isotype control
Experimental: (§3) HvCD37-6b15.1.1 was tested for binding to different NHL, CLL and AML cell lines (See, Table VI) grown in-vitro. HvCD37-6b15.1.1 and an Isotype matched control antibody were biotinylated using NHS LC biotin. In vitro cancer lines growing exponentially were used for all experiments. Briefly, cells were harvested by and washed by centrifugation. Antibodies were diluted to 5 μg/mL final concentration and co-incubated with cells at 4° C. for 1 hour. At the end of the incubation, cells were washed and incubated with secondary detection Streptavidin-PE antibody at a final 1:400 (1.25 μg/mL) dilution for 1 hr at 4° C. After washing un-bound secondary antibody, cells were analyzed by FACS, a total of 10,000 events were collected per sample. Data files were analyzed using FlowJo and Geometric Mean Fluorescence was determined and reported. Fluorescense ratio was calculated as follows: Geo mean AGS67C/Geo Mean Isotype control=MFR, a measure of fold expression above Isotype control.

[6] = target: T1, CD37 (Leukocyte Antigen CD37, …); test: FACS, SU-DHL-4 cells (DLBCL); ratio to isotype control
Experimental: as §3

[7] = target: T1, CD37 (Leukocyte Antigen CD37, …); test: FACS, Mino cells (MCL); ratio to isotype control
Experimental: as §3

[8] = target: T1, CD37 (Leukocyte Antigen CD37, …); test: FACS, Ramos RR XCL cells (Burkitt's, rituxan resistant); ratio to isotype control
Experimental: as §3

[9] = target: T1, CD37 (Leukocyte Antigen CD37, …); test: FACS, THP-1 cells (AML); ratio to isotype control
From the text: as §1, §2

[10] = target: T1, CD37 (Leukocyte Antigen CD37, …); test: FACS, Granta-519 cells (MCL); ratio to secondary detection (high isotype background)
From the text: as §1
as §3, with “At the end of the incubation, cells were washed and incubated with secondary detection Streptavidin-PE antibody at a final 1:400 (1.25 μg/mL) dilution for 1 hr at 4° C.” left out, “Fluorescense ratio was calculated as follows: Geo mean AGS67C/Geo Mean Isotype control=MFR, a measure of fold expression above Isotype control.” left out

[11] = target: T1, CD37 (Leukocyte Antigen CD37, …); test: FACS, HL-60 cells (AML); ratio to isotype control
From the text: as §1, §2

[12] = target: T1, CD37 (Leukocyte Antigen CD37, …); test: FACS, Raji cells (Burkitt's); ratio to isotype control
Experimental: as §3

[13] = target: T1, CD37 (Leukocyte Antigen CD37, …); test: FACS, MOLT-4 cells (ALL); ratio to isotype control
Experimental: as §3

[14] = target: T1, CD37 (Leukocyte Antigen CD37, …); test: FACS, REC-1 cells (MCL); ratio to isotype control
From the text: as §1, §2

[15] = target: T1, CD37 (Leukocyte Antigen CD37, …); test: FACS, DOHH-2 cells (Follicular); ratio to isotype control
From the text: as §1, §2

[16] = target: T1, CD37 (Leukocyte Antigen CD37, …); test: FACS, WSU-DLCL-2 cells (DLBCL); ratio to isotype control
From the text: as §1, §2

[17] = target: T1, CD37 (Leukocyte Antigen CD37, …); test: FACS, MV-4-11 cells (AML); ratio to isotype control
Experimental: as §3

[18] = target: T1, CD37 (Leukocyte Antigen CD37, …); test: FACS, Kasumi-1 cells (AML); ratio to isotype control
From the text: as §1, §2

[19] = target: T1, CD37 (Leukocyte Antigen CD37, …); test: FACS, MOLM-13 cells (AML); ratio to isotype control
Experimental: as §3

[20] = target: T1, CD37 (Leukocyte Antigen CD37, …); test: FACS, JVM-3 cells (CLL); ratio to isotype control
Experimental: as §3

[21] = target: T1, CD37 (Leukocyte Antigen CD37, …); test: FACS, Hel 92.1 cells (AML); ratio to secondary detection (high isotype background)
Experimental: as §3, with “Fluorescense ratio was calculated as follows: Geo mean AGS67C/Geo Mean Isotype control=MFR, a measure of fold expression above Isotype control.” left out

[22] = target: T1, CD37 (Leukocyte Antigen CD37, …); test: FACS, RS4-11 cells (ALL); ratio to isotype control
From the text: as §1, §2

[23] = target: T1, CD37 (Leukocyte Antigen CD37, …); test: FACS, BDCM cells (AML); ratio to isotype control
Experimental: as §3

[24] = target: T1, CD37 (Leukocyte Antigen CD37, …); test: FACS on cells expressing CD37

B1: HvCD37-6b15.1.1 MAb (recombinant, expressed in CHO cells, human IgG2 / kappa) (antibody, V domains shown)
VH: QVQLQQWGAGLLKPSETLSLTCAVYGGSFSPYYWSWIRQPPGKGLEWIGEINHSGSTNYNPSLKSRVTISVDTSKNQFSLKLSSVTAADTAVYYCARRAGDFDYWGQGTLVTVSS
VL: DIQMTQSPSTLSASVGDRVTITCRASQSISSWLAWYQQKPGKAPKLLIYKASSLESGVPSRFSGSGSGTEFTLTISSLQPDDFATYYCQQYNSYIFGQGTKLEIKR
modifications: typical heavy chain of purified CHO material: N-terminal glutamine modified to pyroglutamate and C-terminal lysine deleted; biotinylated with NHS LC biotin for the FACS assays
notes: Fully human antibody: human variable regions on human IgG2 and human kappa constant regions, made in CHO cells (ATCC PTA-120464); also called HvCD37-6b15.1.1 IgG2; AGS67C
MFR (Mean Florescence ratio) [1]: 534
MFR (Mean Florescence ratio) [2]: 316
MFR (Mean Florescence ratio) [3]: 10
MFR (Mean Florescence ratio) [4]: 39
MFR (Mean Florescence ratio) [5]: 3
MFR (Mean Florescence ratio) [6]: 662
MFR (Mean Florescence ratio) [7]: 301
MFR (Mean Florescence ratio) [8]: 140
MFR (Mean Florescence ratio) [9]: 23
MFR (Mean Florescence ratio) [10]: 372
MFR (Mean Florescence ratio) [11]: 5
MFR (Mean Florescence ratio) [12]: 135
MFR (Mean Florescence ratio) [13]: 3
MFR (Mean Florescence ratio) [14]: 341
MFR (Mean Florescence ratio) [15]: 581
MFR (Mean Florescence ratio) [16]: 554
MFR (Mean Florescence ratio) [17]: 8
MFR (Mean Florescence ratio) [18]: 9
MFR (Mean Florescence ratio) [19]: 6
MFR (Mean Florescence ratio) [20]: 122
MFR (Mean Florescence ratio) [21]: 28
MFR (Mean Florescence ratio) [22]: 26
MFR (Mean Florescence ratio) [23]: 64

B2: HvCD37-6b15.1.1 MAb purified from hybridoma (VelocImmune mouse) (antibody, V domains shown)
VH: QVQLQQWGAGLLKPSETLSLTCAVYGGSFSPYYWSWIRQPPGKGLEWIGEINHSGSTNYNPSLKSRVTISVDTSKNQFSLKLSSVTAADTAVYYCARRAGDFDYWGQGTLVTVSS
VL: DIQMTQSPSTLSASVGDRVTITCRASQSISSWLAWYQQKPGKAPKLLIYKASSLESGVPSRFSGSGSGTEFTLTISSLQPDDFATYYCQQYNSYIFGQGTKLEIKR
notes: also called HvCD37-6b15.1.1 purified from hybridoma; MAb material derived from hybridoma cells
binding result [24]: binds
